According to PMC9368917:

Biological target: T1, 3xFLAG-STM0347 (Salmonella enterica serovar Typhimurium (strain not stated in the given text)) (UniProt H9L417)
T1 sequence: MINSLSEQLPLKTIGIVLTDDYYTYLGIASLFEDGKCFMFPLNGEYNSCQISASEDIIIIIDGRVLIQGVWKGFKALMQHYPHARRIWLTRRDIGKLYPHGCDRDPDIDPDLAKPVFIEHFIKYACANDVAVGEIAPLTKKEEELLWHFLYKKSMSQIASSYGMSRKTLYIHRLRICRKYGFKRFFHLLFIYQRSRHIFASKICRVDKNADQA
Test: EMSA
Conditions: 10 mM Tris-HCl pH 8.3, 50 mM KCl, 1 mM MgCl2, 0.5 mM DTT, 0.5 mM EDTA, 50 ug/mL BSA, 0.2% glycerol; room temperature 20 min; 6% native PAGE in 1x TAE in ice …

With “CATCGCTCAAAACACTACCAGACACAGTATTCACCTGGAAAGGCTTTTTAATCAAAATGTTAGATGTAAGCAATTACGGACAGAAAAAATAGTAAAGTTTATGCCTCAAGTGTCGATAACCTGGATGACACAGGTAAGCCTGGCATAACATTGGTTATCAAAAACCTTCCAAAAGGAAAATTTTATGGCACAAGTAATCAACACTAACAGTCTGTCGCTGCTGACCCAGAATAACCTGAACAAATCCCAGTCCGCACTGGGCACCGCTATCGAGCGTCTGTCTTCTGGTCTGCGTATCAA (double strand) [fljB promoter fragment]” the binding was “no binding”.
